Experimental data: patent US20180118800

T1: PLTPRHGDGSF (SEQ ID NO: 6)
T1 sequence: PLTPRHGDGSF

T2: PVSGPRHGDGSF (SEQ ID NO: 7)
T2 sequence: PVSGPRHGDGSF

T3: ITDPLVPRHGDGS (SEQ ID NO: 8)
T3 sequence: ITDPLVPRHGDGS

T4: His6-Smt3-GLP-2 analog fusion protein
T4 chain: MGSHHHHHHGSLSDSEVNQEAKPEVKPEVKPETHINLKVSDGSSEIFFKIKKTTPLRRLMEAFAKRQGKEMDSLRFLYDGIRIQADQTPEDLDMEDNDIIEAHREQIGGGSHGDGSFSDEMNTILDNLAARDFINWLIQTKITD

B1: U1p1 protease (protein)
chain: LVPELNEKDDDQVQKALASRENTQLMNRDNIEITVRDFKTLAPRRWLNDTIIEFFMKYIEKSTPNTVAFNSFFYTNLSERGYQGVRRWMKRKKTQIDKLDKIFTPINLNQSHWALGIIDLKKKTIGYVDSLSNGPNAMSFAILTDLQKYVMEESKHTIGEDFDLIHLDCPQQPNGYDCGIYVCMNTLYGSADAPLDFDYKDAIRMRRFIAHLILTDALK

Experiments:
[1] = system: T1, PLTPRHGDGSF (SEQ ID NO: 6)
[2] = system: T2, PVSGPRHGDGSF (SEQ ID NO: 7)
[3] = system: His6-Smt3-LTPR-GLP-2 analog fusion protein
[4] = system: T3, ITDPLVPRHGDGS (SEQ ID NO: 8)
[5] = biological target: T4, His6-Smt3-GLP-2 analog fusion protein

| Molecule | thrombin cleavage of synthetic peptide, RP-HPLC (C18) [1] | thrombin cleavage of synthetic peptide, RP-HPLC (C18) [2] | thrombin cleavage of fusion protein, RP-HPLC (C18) [3] | thrombin cleavage of fusion protein, SDS-PAGE [3] | thrombin cleavage of synthetic peptide, RP-HPLC (C18) [4] | U1p1 protease cleavage of fusion protein, SDS-PAGE [5] |
| --- | --- | --- | --- | --- | --- | --- |
| thrombin | PLTPRHGDGSF was cleaved the most thoroughly | Each of the three peptides was cleaved with thrombin | produced a complete cleaved product without partially cleaved segments after thrombin cleavage | thrombin had only one cleavage site on the His6-Smt3-Linker-GLP-2 analog fusion protein | Each of the three peptides was cleaved with thrombin | – |
| B1 | – | – | – | – | – | U1p1 protease had only one cleavage cite on the His6-Smt3-GLP-2 analog fusion protein but cleaved far less efficiently than thrombin cleaving a His6-Smt3-Linker-GLP-2 analog fusion protein |
